Data on 3 compounds can be found in article PMC6468047, “Cannabinoid CB1 and CB2 Receptor-Mediated Arrestin Translocation: Species, Subtype, and Agonist-Dependence” (Frontiers in Pharmacology, 2019).

Read-outs that look alike come from different tables or passages of the source.

In assay [1] the target is human D2 dopamine receptor (3HA-hD2R) (human) (UniProt P14416).
The target in assay [2] is human vasopressin receptor 2 (3HA-hV2R) (human) (UniProt P30518).
Assay [3] concerns the target human cannabinoid receptor 1 (pplss-3HA-hCB1) (human) (UniProt P21554).
The target of assay [4] is human cannabinoid receptor 2 (3HA-hCB2) (human) (UniProt P34972).
The target in another assay is T1, CB2 (hCB2) (Homo sapiens, UniProt P34972).
T1 construct: gene CNR2; 3HA-hCB2 in pEF4a: N-terminal 3xHA tag, untagged C-terminus; transient in HEK-293 with Rluc8-arrestin and mem-linker-Citrine reporters
Kind of assay: BRET human β-arrestin-1 plasma membrane translocation. The following applies: 10 µM; HEK-293, 37 °C, single concentration 10 μM, no GRK2 co-expression. Format: cell-based. The source says:
BRET human β-arrestin-1 plasma membrane translocation on CB2 (hCB2)

The target in assay [5] is human D2 dopamine receptor (3HA-hD2R) (human) (UniProt P14416). This is another data set of the same source.
For assay [6], the target named is human vasopressin receptor 2 (3HA-hV2R) (human) (UniProt P30518). The source holds these as a separate data set.
Assay [7] addresses human cannabinoid receptor 1 (pplss-3HA-hCB1) (human) (UniProt P21554). This is another data set of the same source.
In assay [8] the target is human cannabinoid receptor 2 (3HA-hCB2) (human) (UniProt P34972). The source holds these as a separate data set.

Chain of human cannabinoid receptor 2 (3HA-hCB2) (human) (P34972 whole entry): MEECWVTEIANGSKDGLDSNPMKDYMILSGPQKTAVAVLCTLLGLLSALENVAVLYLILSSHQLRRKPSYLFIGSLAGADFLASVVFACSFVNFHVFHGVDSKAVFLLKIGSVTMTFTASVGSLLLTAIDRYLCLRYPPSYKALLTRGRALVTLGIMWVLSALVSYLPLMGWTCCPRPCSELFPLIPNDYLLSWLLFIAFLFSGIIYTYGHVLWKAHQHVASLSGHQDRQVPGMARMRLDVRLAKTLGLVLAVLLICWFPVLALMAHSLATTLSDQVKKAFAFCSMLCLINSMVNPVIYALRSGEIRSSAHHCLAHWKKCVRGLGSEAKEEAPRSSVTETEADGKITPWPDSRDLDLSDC
Chain of bovine β-arrestin-2 (Rluc8-bβ-arrestin-2-Sp1) (P32120 whole entry): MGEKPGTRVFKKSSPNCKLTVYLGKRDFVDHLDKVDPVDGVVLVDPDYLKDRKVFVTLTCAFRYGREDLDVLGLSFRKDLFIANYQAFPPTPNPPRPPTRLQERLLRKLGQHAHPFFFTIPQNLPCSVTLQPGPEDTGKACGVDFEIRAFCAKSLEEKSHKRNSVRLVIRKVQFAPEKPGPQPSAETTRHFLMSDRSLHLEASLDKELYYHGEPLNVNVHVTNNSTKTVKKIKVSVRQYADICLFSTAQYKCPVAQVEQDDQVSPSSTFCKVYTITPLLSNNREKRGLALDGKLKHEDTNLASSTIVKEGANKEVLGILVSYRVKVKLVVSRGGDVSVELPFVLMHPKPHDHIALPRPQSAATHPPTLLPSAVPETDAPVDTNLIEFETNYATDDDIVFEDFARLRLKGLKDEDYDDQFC
Chain of human β-arrestin-1 (Rluc8-hβ-arrestin-1-Sp1) (P49407 whole entry): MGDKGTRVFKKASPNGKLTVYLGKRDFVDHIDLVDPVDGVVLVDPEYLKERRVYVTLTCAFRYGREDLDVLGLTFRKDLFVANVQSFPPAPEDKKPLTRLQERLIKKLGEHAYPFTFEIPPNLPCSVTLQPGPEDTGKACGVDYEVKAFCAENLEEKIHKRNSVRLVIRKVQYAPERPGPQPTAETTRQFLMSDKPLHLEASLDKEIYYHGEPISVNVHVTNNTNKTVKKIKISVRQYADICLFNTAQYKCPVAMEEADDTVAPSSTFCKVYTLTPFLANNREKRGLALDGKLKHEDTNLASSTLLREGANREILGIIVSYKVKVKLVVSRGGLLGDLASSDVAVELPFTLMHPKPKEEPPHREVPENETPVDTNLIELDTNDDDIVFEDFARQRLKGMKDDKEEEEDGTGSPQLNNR
Chain of human cannabinoid receptor 1 (pplss-3HA-hCB1) (human) (P21554 whole entry): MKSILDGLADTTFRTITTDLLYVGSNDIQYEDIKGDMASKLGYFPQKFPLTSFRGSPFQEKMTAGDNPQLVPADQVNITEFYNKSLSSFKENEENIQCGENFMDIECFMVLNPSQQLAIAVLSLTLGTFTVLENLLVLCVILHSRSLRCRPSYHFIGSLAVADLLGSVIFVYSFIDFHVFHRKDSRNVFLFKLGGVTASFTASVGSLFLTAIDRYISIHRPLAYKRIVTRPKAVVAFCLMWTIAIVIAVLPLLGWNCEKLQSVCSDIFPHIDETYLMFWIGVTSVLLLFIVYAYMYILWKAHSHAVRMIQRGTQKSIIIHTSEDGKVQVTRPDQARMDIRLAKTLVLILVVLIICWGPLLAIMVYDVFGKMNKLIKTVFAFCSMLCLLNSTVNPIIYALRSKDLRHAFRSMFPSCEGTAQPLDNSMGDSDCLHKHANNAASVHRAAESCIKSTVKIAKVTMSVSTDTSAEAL
Chain of human D2 dopamine receptor (3HA-hD2R) (human) (P14416 whole entry): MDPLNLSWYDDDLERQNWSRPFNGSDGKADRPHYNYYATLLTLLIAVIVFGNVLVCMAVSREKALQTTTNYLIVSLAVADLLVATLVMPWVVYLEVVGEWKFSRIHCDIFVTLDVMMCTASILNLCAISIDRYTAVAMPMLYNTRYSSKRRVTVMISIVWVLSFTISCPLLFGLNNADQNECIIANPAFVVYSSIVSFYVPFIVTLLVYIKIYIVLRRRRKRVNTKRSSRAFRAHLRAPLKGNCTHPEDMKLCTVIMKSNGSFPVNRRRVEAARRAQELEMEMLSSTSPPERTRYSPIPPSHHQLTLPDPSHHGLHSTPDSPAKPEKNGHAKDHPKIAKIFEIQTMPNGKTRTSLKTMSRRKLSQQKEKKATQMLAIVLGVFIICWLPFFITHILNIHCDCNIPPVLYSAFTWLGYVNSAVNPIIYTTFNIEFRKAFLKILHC
T1 sequence (P34972 whole entry): as the sequence (P34972 whole entry) above

Turning to “human β-arrestin-1 (Rluc8-hβ-arrestin-1-Sp1) (from UniProt P49407 1-418) (natural protein)”, in [1], the Response, arrestin translocation to the plasma membrane (BRET, AUC of 25 min); 10 μM dopamine was 17.9 ΔBRET.sec and the Response, arrestin translocation to the plasma membrane (BRET, AUC of 25 min); 10 μM dopamine; GRK2 co-expressed was 86.1 ΔBRET.sec. Also, the Emax, arrestin translocation to the plasma membrane (BRET, AUC of 25 min); agonist AVP in assay [2] is 246 ΔBRET.sec. In assay [3], the Response, arrestin translocation to the plasma membrane (BRET, AUC of 25 min); 1 μM CP55,940 (not significantly different from vehicle) was 17.6 ΔBRET.sec; the Response, arrestin translocation to the plasma membrane (BRET, AUC of 25 min); 1 μM CP55,940; GRK2 co-expressed (significantly different from vehicle) was 28.1 ΔBRET.sec; the Response, arrestin translocation to the plasma membrane (BRET, AUC of 25 min); 10 μM AEA (not significantly different from vehicle) was 10 ΔBRET.sec; the Response, arrestin translocation to the plasma membrane (BRET, AUC of 25 min); 10 μM BAY (not significantly different from vehicle) was 1.4 ΔBRET.sec. In addition, in [3], the Response, arrestin translocation to the plasma membrane (BRET, AUC of 25 min); 10 μM THC (not significantly different from vehicle) was 16.2 ΔBRET.sec; the Response, arrestin translocation to the plasma membrane (BRET, AUC of 25 min); 10 μM WIN55,212-2 (significantly different from vehicle) is 36.2 ΔBRET.sec; the Response, arrestin translocation to the plasma membrane (BRET, AUC of 25 min); 31.6 μM 2-AG (significantly different from vehicle) is 51.8 ΔBRET.sec; the Response, arrestin translocation to the plasma membrane (BRET, AUC of 25 min); 31.6 μM 2-AG; GRK2 co-expressed (significantly different from vehicle) is 53 ΔBRET.sec. In addition, in [4], the Response, arrestin translocation to the plasma membrane (BRET, AUC of 25 min); 1 μM CP55,940 (significantly different from vehicle) was 20.5 ΔBRET.sec; the Response, arrestin translocation to the plasma membrane (BRET, AUC of 25 min); 1 μM CP55,940; GRK2 co-expressed (significantly different from vehicle) is 22.7 ΔBRET.sec; the Response, arrestin translocation to the plasma membrane (BRET, AUC of 25 min); 10 μM JWH-015 (significantly different from vehicle) was 31.2 ΔBRET.sec; the Response, arrestin translocation to the plasma membrane (BRET, AUC of 25 min); 10 μM JWH-133 (not significantly different from vehicle) is 4.9 ΔBRET.sec. Moreover, in assay [4], the Response, arrestin translocation to the plasma membrane (BRET, AUC of 25 min); 10 μM THC (significantly different from vehicle) was 14.4 ΔBRET.sec; the Response, arrestin translocation to the plasma membrane (BRET, AUC of 25 min); 10 μM WIN55,212-2 (not significantly different from vehicle) is 3.2 ΔBRET.sec; the Response, arrestin translocation to the plasma membrane (BRET, AUC of 25 min); 31.6 μM 2-AG (significantly different from vehicle) is 14.7 ΔBRET.sec; the Response, arrestin translocation to the plasma membrane (BRET, AUC of 25 min); 31.6 μM 2-AG; GRK2 co-expressed (significantly different from vehicle) was 17.2 ΔBRET.sec.
For the compound `CCCCCc1cc(O)c2c(c1)OC(C)(C)[C@@H]1CCC(C)=C[C@@H]21` [THC], the “CB2 / Response ± SEM (ΔBRET.sec)” value at CB2 (hCB2) is given as 14.4 ± 2.8 ΔBRET.sec.
Consider “bovine β-arrestin-2 (Rluc8-bβ-arrestin-2-Sp1) (from UniProt P32120 1-420) (natural protein)”, for which, in [5], the Emax, arrestin translocation to the plasma membrane (BRET, AUC of 25 min); agonist dopamine was 40.6 ΔBRET.sec and the Emax, arrestin translocation to the plasma membrane (BRET, AUC of 25 min); agonist dopamine; GRK2 co-expressed is 129 ΔBRET.sec. Besides, the Emax, arrestin translocation to the plasma membrane (BRET, AUC of 25 min); agonist AVP in [6] was 194 ΔBRET.sec. Further, in assay [7], the Emax, arrestin translocation to the plasma membrane (BRET, AUC of 25 min); agonist 2-AG is 116 ΔBRET.sec; the Emax, arrestin translocation to the plasma membrane (BRET, AUC of 25 min); agonist 2-AG; GRK2 co-expressed was 91.7 ΔBRET.sec; the Emax, arrestin translocation to the plasma membrane (BRET, AUC of 25 min); agonist AEA is 32.1 ΔBRET.sec; the Emax, arrestin translocation to the plasma membrane (BRET, AUC of 25 min); agonist CP55,940 was 35.2 ΔBRET.sec. Besides, in assay [7], the Emax, arrestin translocation to the plasma membrane (BRET, AUC of 25 min); agonist CP55,940; GRK2 co-expressed was 58.9 ΔBRET.sec; the Emax, arrestin translocation to the plasma membrane (BRET, AUC of 25 min); agonist WIN55,212-2 was 72 ΔBRET.sec; the efficacy at 10 μM BAY (NA, not active; no curve could be fitted), arrestin translocation to the plasma membrane (BRET, AUC of 25 min) was 2.4 ΔBRET.sec; the efficacy at 10 μM THC (NA, not active; no curve could be fitted), arrestin translocation to the plasma membrane (BRET, AUC of 25 min) is 0.54 ΔBRET.sec. Further, in assay [8], the Emax, arrestin translocation to the plasma membrane (BRET, AUC of 25 min); agonist 2-AG was 45 ΔBRET.sec; the Emax, arrestin translocation to the plasma membrane (BRET, AUC of 25 min); agonist 2-AG; GRK2 co-expressed is 75.7 ΔBRET.sec; the Emax, arrestin translocation to the plasma membrane (BRET, AUC of 25 min); agonist CP55,940 was 45.4 ΔBRET.sec; the Emax, arrestin translocation to the plasma membrane (BRET, AUC of 25 min); agonist CP55,940; GRK2 co-expressed was 70.9 ΔBRET.sec. Further, in assay [8], the Emax, arrestin translocation to the plasma membrane (BRET, AUC of 25 min); agonist JWH-015 is 26.7 ΔBRET.sec; the Emax, arrestin translocation to the plasma membrane (BRET, AUC of 25 min); agonist JWH-133 was 49.7 ΔBRET.sec; the Emax, arrestin translocation to the plasma membrane (BRET, AUC of 25 min); agonist WIN55,212-2 is 25.6 ΔBRET.sec; the efficacy at 10 μM THC (NA, not active; no curve could be fitted), arrestin translocation to the plasma membrane (BRET, AUC of 25 min) is 2 ΔBRET.sec.
